Series [1] concerns Saccharomyces cerevisiae. Kind of series: protein stability index of tFT-peptide fusion in wild type (PSI (0-1 scale)); higher = more stable (slower turnover). As to conditions: genetic background: wild type. The method, then: (§1)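 MPS profiling in S. cerevisiae of two library types built from selected 12-aa C-degron peptides (IN1, IN2, LN1, LN3, VN2, R1-R5, W1-W3, Atg1 and Rpa12 C-termini): saturation mutagenesis libraries and C-terminal +1 capping libraries (13 aa). Each peptide is fused to the C-terminus of a sfGFP-mCherry timer, after a GGGS linker. Cells are FACS-sorted into 8 mCherry/sfGFP bins and sequenced. PSI runs from 0 (unstable) to 1 (stable), measured once in wild type and in the das1Δ or doa10Δ background.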

Series [2] concerns Saccharomyces cerevisiae. Description: protein stability index of tFT-peptide fusion in deletion strain of DAS1 (PSI (0-1 scale)); higher = more stable (slower turnover). As to the method:
as §1
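For protein stability index of tFT-peptide fusion in deletion strain of DAS1 in this document: PSI is a weighted mean of each variant's read distribution over the sorted stability bins, computed only for variants having over 10 reads in total.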
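For protein stability index of tFT-peptide fusion in wild type in this document: PSI derived as read-weighted mean over the 8 sorting bins, only variants exceeding 10 total reads kept, mCherry placed adjacent to the peptide and sfGFP distal.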

In the case of LVMYLSCVACIN, the values for the protein stability index in the series with Saccharomyces cerevisiae [1] and with Saccharomyces cerevisiae [2] were 0.0125 and 0.135, respectively.

As for LVSYLSCVACIN, the protein stability index with Saccharomyces cerevisiae [1] came to 0.0799; in the series on Saccharomyces cerevisiae [2] it was 0.252.

Take LVVVLSCVACIN: the protein stability index in the series on Saccharomyces cerevisiae [1] is 0.0126; in the series on Saccharomyces cerevisiae [2], 0.0377.

As for LVVWLSCVACIN, the protein stability index came out at 0.0122 with Saccharomyces cerevisiae [1] and 0.0381 in the series on Saccharomyces cerevisiae [2].

In the case of LVVYCSCVACIN, the protein stability index in the series with Saccharomyces cerevisiae [1] worked out at 0.0182; in the series on Saccharomyces cerevisiae [2], 0.0283.

On to LVVYLQCVACIN, for which the protein stability index was found to be 0.0274 with Saccharomyces cerevisiae [1] and 0.0353 in the series with Saccharomyces cerevisiae [2].

Turning to LVVYLSAVACIN, the protein stability index is 0.0153 in the series with Saccharomyces cerevisiae [1] and 0.0365 in the series with Saccharomyces cerevisiae [2].

In the case of LVVYLSCSACIN, the results for the protein stability index in the series with Saccharomyces cerevisiae [1] and in the series with Saccharomyces cerevisiae [2] were 0.0177 and 0.0361, respectively.

For LVVYLSCVACDN, the protein stability index is 0.249 in the series on Saccharomyces cerevisiae [1] and 0.272 in the series with Saccharomyces cerevisiae [2].

Consider LVVYLSCVACIH, for which the protein stability index turned out to be 0.0123 with Saccharomyces cerevisiae [1] and 0.0535 in the series with Saccharomyces cerevisiae [2].

Regarding LVVYLSCVACIT, the results for the protein stability index in the series with Saccharomyces cerevisiae [1] and with Saccharomyces cerevisiae [2] were 0.0143 and 0.0345, respectively.

Consider LVVYLSCVACKN, for which the results for the protein stability index with Saccharomyces cerevisiae [1] and with Saccharomyces cerevisiae [2] were 0.034 and 0.0769, respectively.

Regarding LVVYLSCVADIN, the values for the protein stability index in the series on Saccharomyces cerevisiae [1] and with Saccharomyces cerevisiae [2] were 0.108 and 0.168, respectively.

Take LVVYLSCVAGIN: the values for the protein stability index with Saccharomyces cerevisiae [1] and with Saccharomyces cerevisiae [2] were 0.13 and 0.154, respectively.

For the sequence LVVYLSCVANIN, the protein stability index with Saccharomyces cerevisiae [1] was 0.0173; with Saccharomyces cerevisiae [2], 0.0788.

On to LVVYLSCVAQIN, for which the protein stability index in the series with Saccharomyces cerevisiae [1] is 0.014; in the series on Saccharomyces cerevisiae [2], 0.0252.

Regarding LVVYLSCVKCIN, the protein stability index in the series with Saccharomyces cerevisiae [1] turned out to be 0.146; with Saccharomyces cerevisiae [2] it was 0.319.

On to LVVYLSEVACIN, for which the protein stability index in the series on Saccharomyces cerevisiae [1] worked out at 0.264; in the series on Saccharomyces cerevisiae [2] it was 0.286.

For LVVYLTCVACIN, the values for the protein stability index in the series with Saccharomyces cerevisiae [1] and with Saccharomyces cerevisiae [2] were 0.0129 and 0.0371, respectively.

LVVYLYCVACIN: the results for the protein stability index in the series with Saccharomyces cerevisiae [1] and in the series with Saccharomyces cerevisiae [2] were 0.0123 and 0.0269, respectively.

Take MDKRNHLIKLLN: the protein stability index with Saccharomyces cerevisiae [1] turned out to be 0.111; in the series with Saccharomyces cerevisiae [2], 0.702.

As to MKILRQKMNHQN, the protein stability index with Saccharomyces cerevisiae [1] is 0.163; in the series on Saccharomyces cerevisiae [2] it was 0.66.

Consider MRGAVGGWRLVG, for which the results for the protein stability index in the series with Saccharomyces cerevisiae [1] and in the series with Saccharomyces cerevisiae [2] were 0.146 and 0.653, respectively.

In the case of MRWRVGLWRGAS, the protein stability index with Saccharomyces cerevisiae [1] amounted to 0.143; in the series on Saccharomyces cerevisiae [2] it was 0.727.

Take PCKRNHLIKLLN: the results for the protein stability index in the series with Saccharomyces cerevisiae [1] and with Saccharomyces cerevisiae [2] were 0.112 and 0.614, respectively.

With PCLAASFWRVVG, the protein stability index was found to be 0.128 in the series on Saccharomyces cerevisiae [1] and 0.68 with Saccharomyces cerevisiae [2].

PDKCNHLIKLLN: the protein stability index turned out to be 0.209 with Saccharomyces cerevisiae [1] and 0.586 in the series on Saccharomyces cerevisiae [2].

With PDKQNHLIKLLN, the values for the protein stability index with Saccharomyces cerevisiae [1] and in the series on Saccharomyces cerevisiae [2] were 0.189 and 0.593, respectively.

Turning to PDKRCHLIKLLN, the protein stability index with Saccharomyces cerevisiae [1] stood at 0.0642; in the series with Saccharomyces cerevisiae [2], 0.596.

Turning to PDKRNHAIKLLN, the protein stability index with Saccharomyces cerevisiae [1] amounted to 0.186; in the series with Saccharomyces cerevisiae [2], 0.603.

Consider PDKRNHDIKLLN, for which the protein stability index with Saccharomyces cerevisiae [1] worked out at 0.407; in the series with Saccharomyces cerevisiae [2] it was 0.606.

As for PDKRNHLIKFLN, the protein stability index in the series with Saccharomyces cerevisiae [1] was found to be 0.112; in the series on Saccharomyces cerevisiae [2], 0.583.

Turning to PDKRNHLIKLKN, the protein stability index was 0.273 with Saccharomyces cerevisiae [1] and 0.599 with Saccharomyces cerevisiae [2].

On to PDKRNHLIKLLM, for which the protein stability index in the series with Saccharomyces cerevisiae [1] turned out to be 0.112; with Saccharomyces cerevisiae [2], 0.586.

Take PDKRNHLIKLLV: the protein stability index with Saccharomyces cerevisiae [1] was 0.118; with Saccharomyces cerevisiae [2] it was 0.618.

Take PDKRNHLIKLLY: the protein stability index was 0.328 in the series with Saccharomyces cerevisiae [1] and 0.587 in the series on Saccharomyces cerevisiae [2].

For PDKRNHLIKLYN, the values for the protein stability index in the series on Saccharomyces cerevisiae [1] and with Saccharomyces cerevisiae [2] were 0.343 and 0.599, respectively.

For the sequence PDKSNHLIKLLN, the figures for the protein stability index in the series on Saccharomyces cerevisiae [1] and in the series with Saccharomyces cerevisiae [2] were 0.157 and 0.652, respectively.

With PIKRNHLIKLLN, the protein stability index in the series with Saccharomyces cerevisiae [1] worked out at 0.157; in the series with Saccharomyces cerevisiae [2], 0.622.

Turning to PNLAASFWRVVG, the protein stability index turned out to be 0.144 with Saccharomyces cerevisiae [1] and 0.694 in the series with Saccharomyces cerevisiae [2].

Consider PQLAASFWRVVG, for which the figures for the protein stability index in the series on Saccharomyces cerevisiae [1] and in the series on Saccharomyces cerevisiae [2] were 0.152 and 0.7, respectively.

As for PRGAVGGWRLVG, the protein stability index turned out to be 0.169 with Saccharomyces cerevisiae [1] and 0.671 in the series with Saccharomyces cerevisiae [2].

As to PRLAASFWRVVG, the protein stability index in the series with Saccharomyces cerevisiae [1] came to 0.197; with Saccharomyces cerevisiae [2], 0.691.

Take PSIAASFWRVVG: the values for the protein stability index in the series on Saccharomyces cerevisiae [1] and in the series on Saccharomyces cerevisiae [2] were 0.143 and 0.695, respectively.

The record behind these values is the supplement of paper PMC10724198.
